# Test results: ChEMBL document CHEMBL1157628, “Carbonic anhydrase activators. The first activation study of a coral secretory isoform with amino acids and amines” (Bioorg Med Chem, 2010)
# B1: Carbonic anhydrase 6 (Homo sapiens), P23280 (protein)
# chain: MRALVLLLSLFLLGGQAQHVSDWTYSEGALDEAHWPQHYPACGGQRQSPINLQRTKVRYNPSLKGLNMTGYETQAGEFPMVNNGHTVQISLPSTMRMTVADGTVYIAQQMHFHWGGASSEISGSEHTVDGIRHVIEIHIVHYNSKYKSYDIAQDAPDGLAVLAAFVEVKNYPENTYYSNFISHLANIKYPGQRTTLTGLDVQDMLPRNLQHYYTYHGSLTTPPCTENVHWFVLADFVKLSRTQVWKLENSLLDHRNKTIHNDYRRTQPLNHRVVESNFPNQEYTLGSEFQFYLHKIEEILDYLRRALN
# Legend:
# [1] = substrate: N[C@@H](Cc1c[nH]c2ccccc12)C(=O)O; experiment: (§1) Activity of human full length CA6 at 10 uM by stopped flow CO2 hydration assay
# [2] = substrate: N[C@H](Cc1c[nH]c2ccccc12)C(=O)O; experiment: as §1
protein,measurement,setting,value
B1,kcat,[1],9.5 ×10⁵ /s
same,kcat,[2],4.8 ×10⁵ /s
